Measurements reported in patent publication US20140242093A1, “METHODS AND COMPOSITIONS FOR MODULATING THE INNATE IMMUNE RESPONSE AND/OR MYOGENESIS IN A MAMMALIAN SUBJECT” (FRED HUTCHINSON CANCER RESEARCH CENTER, priority 2011, published 2014).

Tested on: control human primary myoblasts
Assay: Expression microarray of primary myoblasts transduced with lentivirus carrying DUX4-fl, DUX4-s or GFP
Description: Primary human myoblasts were collected and cultured as previously described (Snider et al., 2010). Primary myoblasts were maintained at or below 70% confluency for proliferation. For differentiation, cells were allowed to reach 95-100% confluency in growth medium. Once confluency was reached, the cells were changed to differentiation medium (F10 media supplemented with 1% horse serum, 10 μg/mL insulin, and 10 μg/mL transferrin, penicillin/streptomycin) and maintained for 4 days. Human RD cells were grown in DMEM in 10% bovine calf serum (Hyclone) and penicillin/streptomycin. The primary myoblasts were transduced with lentivirus carrying DUX-fl, DUX4- or GFP (MOI=15).
Expression microarrays were performed on the transduced cells at 24 hours after transduction as follows. […] Samples were analyzed by Illumina Human Whole Genome microarrays. Probe intensities were corrected, normalized, and summarized by the Lumi package of Bioconductor (Du et al., 2008). Differentially expressed genes were identified by the LIMMA package of Bioconductor (Wettenhall and Smyth, 2004). Gene set enrichment analysis (GSEA) was performed using the Bioconductor GOstats package (Falcon and Gentleman, 2007).

B1: DUX4-s: short splice form of DUX4 (SEQ ID NO:112), keeps the double-homeobox domains, lacks the C-terminal activation domain (protein, listed as Homo sapiens)
chain: MALPTPSDSTLPAEARGRGRRRRLVWTPSQSEALRACFERNPYPGIATRERLAQAIGIPEPRVQIWFQNERSRQLRQHRRESRPWPGRRGPPEGRRKRTAVTGSQTALLLRAFEKDRFPGIAAREELARETGLPESRIQIWFQNRRARHPGQGGRAPAQV
With B1 as the molecule, how does the “fc of CENPF (expression array)” value (Refseq NM_016343.3) read?
Its value is −1.028.

And the CWC15 expression fc (Refseq NM_016403.3)?
The CWC15 expression fc was 0.09338.

What about the “fc of TMEM9 (expression array)” value (Refseq NM_016456.2) of the same molecule?
Its value is −0.2052.

What about the RAB6B expression fc (Refseq NM_016577.3) of the same molecule?
Its RAB6B expression fc is 0.007069.

And the SLC15A3 expression fc (Refseq NM_016582.1, cultured human skeletal muscle)?
Its SLC15A3 expression fc is 0.7755.

What about the FKBP11 fc (Refseq NM_016594.1) of the same molecule?
The FKBP11 fc was 0.3006.

And the ARMCX1 fc (Refseq NM_016608.1)?
The ARMCX1 fc was −0.06031.

And the C8orf55 fc (Refseq NM_016647.2)?
Its C8orf55 fc is −0.387.

And the HOXC13 fc (Refseq NM_017410.2)?
Its HOXC13 fc is 0.444.

And the USP18 expression fc (Refseq NM_017414.3, cultured human skeletal muscle)?
Its USP18 expression fc is 0.996.

And the PARP14 expression fc (Refseq NM_017554.1, cultured human skeletal muscle)?
The PARP14 expression fc was 0.5211.

And the “fc of SLC43A3 (expression array)” value (Refseq NM_017611.2)?
The value was 0.4376.

What about the NOTCH1 fc (Refseq NM_017617.3) of the same molecule?
Its NOTCH1 fc is −0.6695.

And the KIF21A expression fc (Refseq NM_017641.2)?
Its KIF21A expression fc is 0.01529.

What about the “fc of AHI1 (expression array)” value (Refseq NM_017651.3) of the same molecule?
Its value is −1.054.

What about the SAMD9 expression fc (Refseq NM_017654.2, cultured human skeletal muscle) of the same molecule?
Its SAMD9 expression fc is 1.399.

And the FAM46C expression fc (Refseq NM_017709.3)?
The FAM46C expression fc was −0.1289.

And the RETSAT expression fc (Refseq NM_017750.2, cultured human skeletal muscle)?
The RETSAT expression fc was −0.1731.

What about the LYAR expression fc (Refseq NM_017816.1) of the same molecule?
The LYAR expression fc was 0.000875.

What about the ZSCAN2 expression fc (Refseq NM_017894.4) of the same molecule?
Its ZSCAN2 expression fc is −0.1999.

What about the HERC6 expression fc (Refseq NM_017912.3, cultured human skeletal muscle) of the same molecule?
Its HERC6 expression fc is 0.5237.

What about the PID1 fc (Refseq NM_017933.3) of the same molecule?
Its PID1 fc is 0.314.

What about the ZNHIT6 expression fc (Refseq NM_017953.2) of the same molecule?
Its ZNHIT6 expression fc is 0.3265.

What about the C14orf102 expression fc (Refseq NM_017970.2) of the same molecule?
The C14orf102 expression fc was 0.1769.

What about the “fc of WIPI1 (expression array)” value (Refseq NM_017983.4) of the same molecule?
Its value is 0.07989.

What about the RNF31 fc (Refseq NM_017999.4) of the same molecule?
Its RNF31 fc is 0.05142.

And the FRMD4A fc (Refseq NM_018027.3)?
The FRMD4A fc was −0.5453.

What about the FAM90A1 expression fc (Refseq NM_018088.3) of the same molecule?
Its FAM90A1 expression fc is 0.02937.

And the “fc of RBM23 (expression array)” value (Refseq NM_018107.4)?
The value was −0.07729.

What about the PNPO fc (Refseq NM_018129.2) of the same molecule?
Its PNPO fc is −0.02588.

And the SEC61A2 expression fc (Refseq NM_018144.2)?
The SEC61A2 expression fc was 0.209.

What about the NADSYN1 fc (Refseq NM_018161.4) of the same molecule?
Its NADSYN1 fc is 0.1182.

What about the TMEM140 expression fc (Refseq NM_018295.2, cultured human skeletal muscle) of the same molecule?
Its TMEM140 expression fc is 1.003.

What about the BRIX1 expression fc (Refseq NM_018321.3) of the same molecule?
The BRIX1 expression fc was 0.2991.

What about the DRAM1 fc (Refseq NM_018370.2) of the same molecule?
Its DRAM1 fc is −0.3649.

What about the LSG1 expression fc (Refseq NM_018385.1) of the same molecule?
Its LSG1 expression fc is −0.06468.

What about the TBC1D2 fc (Refseq NM_018421.2) of the same molecule?
The TBC1D2 fc was 0.2926.

What about the RRN3 expression fc (Refseq NM_018427.3) of the same molecule?
The RRN3 expression fc was 0.1072.

What about the ZNF302 fc (Refseq NM_018443.2) of the same molecule?
The ZNF302 fc was −0.01005.

And the “fc of GLT8D1 (expression array)” value (Refseq NM_018446.2)?
The value was −0.2715.

What about the BEX1 fc (Refseq NM_018476.3) of the same molecule?
The BEX1 fc was −0.2346.

And the SLC35E3 fc (Refseq NM_018656.2)?
Its SLC35E3 fc is 0.4619.

And the DEFB103B expression fc (Refseq NM_018661.3)?
Its DEFB103B expression fc is −0.03507.

And the “fc of SULF2 (expression array)” value (Refseq NM_018837.2)?
Its value is −0.04817.

And the PDE7B fc (Refseq NM_018945.3)?
The PDE7B fc was −0.5695.

What about the NANS expression fc (Refseq NM_018946.2) of the same molecule?
The NANS expression fc was −0.006607.

And the POLR1B expression fc (Refseq NM_019014.3)?
Its POLR1B expression fc is −0.1313.

And the CCNJ expression fc (Refseq NM_019084.2)?
The CCNJ expression fc was 0.07916.

And the “fc of HOXA5 (expression array)” value (Refseq NM_019102.2)?
Its value is −0.1759.

And the PNO1 expression fc (Refseq NM_020143.2)?
The PNO1 expression fc was 0.2485.

What about the KTELC1 fc (Refseq NM_020231.3) of the same molecule?
Its KTELC1 fc is 0.1564.

What about the C1orf63 expression fc (Refseq NM_020317.3) of the same molecule?
The C1orf63 expression fc was −0.139.

And the ZMIZ1 fc (Refseq NM_020338.2)?
Its ZMIZ1 fc is −0.03787.

What about the TRIM49 expression fc (Refseq NM_020358.2) of the same molecule?
Its TRIM49 expression fc is −0.01703.

And the LYRM1 fc (Refseq NM_020424.2)?
The LYRM1 fc was 0.01491.

What about the SLC44A2 fc (Refseq NM_020428.2) of the same molecule?
The SLC44A2 fc was −0.3457.

What about the PCBP3 fc (Refseq NM_020528.1) of the same molecule?
The PCBP3 fc was 0.2113.

And the NFKBIA expression fc (Refseq NM_020529.1, cultured human skeletal muscle)?
The NFKBIA expression fc was 0.2751.

And the “fc of RCN3 (expression array)” value (Refseq NM_020650.2)?
The value was −0.2021.

And the PELI1 expression fc (Refseq NM_020651.2)?
Its PELI1 expression fc is 0.1483.

What about the “fc of FAM62B (expression array)” value (Refseq NM_020728.1) of the same molecule?
Its value is −1.387.

What about the HECW2 fc (Refseq NM_020760.1) of the same molecule?
The HECW2 fc was 0.06016.

What about the ZNF319 fc (Refseq NM_020807.1) of the same molecule?
The ZNF319 fc was −0.08179.

And the OSBPL8 expression fc (Refseq NM_020841.4)?
Its OSBPL8 expression fc is 1.055.

And the USP29 expression fc (Refseq NM_020903.2)?
The USP29 expression fc was −0.09046.

And the “fc of RNF213 (expression array)” value (Refseq NM_020914.3)?
The value was 0.6308.

And the “fc of FAM160B1 (expression array)” value (Refseq NM_020940.3)?
The value was 0.6282.

What about the “fc of IGDCC4 (expression array)” value (Refseq NM_020962.1) of the same molecule?
The value was −0.5216.

What about the RFPL1 expression fc (Refseq NM_021026.2) of the same molecule?
Its RFPL1 expression fc is 0.3402.
